In the Human Domainome abundance scans (Beltran et al. 2025):

B1: Formin-binding protein 4, residues 200 to 261; numbered along this chain, Q8N3X1 (parent)
chain: SGWQYDTQCSLAGVGIEMGDWQEVWDENTGCYYYWNTQTNEVTWELPQYLATQVQGLQHYQP

Variants of: B1
Assay: abundance fitness (aPCA) (normalised: wild type 0, dead -1); higher = more abundant; growth selection in yeast, the domain comes from the species named
Settings: Homo sapiens

Abundance fitness, by site and new letter:
G56: D 0.177; V -0.219; H -0.186; L -0.209; Q 0.076; S -0.031; M -0.367; E 0.224; A -0.018; W -0.16; I -0.425; Y -0.401; N 0.051; C -0.255; T 0.015; R 0.004; P -0.178; F -0.464
A51: K -0.025; R -0.087; N -0.237; W -0.175; L -0.323; Y -0.124; H -0.308; Q -0.519; M -0.245; V -0.237; S -0.178; E -0.3; T -0.306; D -0.388; P -0.752; G -0.346; C -0.145; I -0.703
W44: P -0.218; D -0.429; E 0.078; N 0.068; Y 0.089; A -0.221; G -0.135; R 0.03; V -0.127; K 0.043; T -0.077; F -0.121; Q -0.061; S -0.037; L -0.226; C -0.078; H -0.236; I -0.503
Q53: E -0.588; P -0.663; L -0.457; F -0.621; S -0.765; K -0.188; V -0.679; I -0.611; H -0.68; W -0.634; A -0.407; R -0.215; C -0.738; T -0.606; D -0.314; G -0.688; M -0.624
Q55: A -0.012; H -0.482; S -0.177; E -0.268; T -0.18; R -0.12; M -0.102; C 0.121; I -0.321; D -0.005; W 0.039; P -0.647; F -0.018; N -0.186; K -0.173; Y -0.389; V -0.173; L -0.184
V54: N -0.48; R -0.625; K -0.589; S -0.603; E -0.741; M 0.055; T -0.403; I 0.1; D -0.644; L -0.094; P -0.741; H -0.716; G -0.546; Y -0.274; A -0.336; F -0.214; Q -0.754
L50: W -0.48; M -0.52; I -0.214; H -0.732; F -0.716; Q -0.7; A -0.822; P -0.741; E -0.488; S -0.613; T -0.704; Y -0.738; N -1.06; C -0.45; D -1.04; G -0.767; R -0.82; K -0.719
Q48: K 0.129; R -0.061; I -0.262; A -0.039; T 0.053; W -0.417; Y 0.23; L 0.043; H -0.133; F -0.293; C -0.147; P 0.319; N -0.059; M 0.085; S -0.038; D 0.02; G -0.007; E -0.024; V -0.127
T39: N -0.093; M -0.386; R -0.306; C -0.307; I -0.354; H -0.34; E -0.37; L -0.461; Q -0.226; K -0.123; F -0.577; S 0.017; G -0.362; A -0.411; Y -0.579; V -0.877; W -0.568; P -0.873; D -0.151
Q38: P -0.541; F -0.346; L -0.133; R 0.042; K 0.138; H -0.022; D 0.247; G -0.077; V -0.126; I -0.086; E -0.081; T 0.254; W -0.216; M -0.11; S -0.019; N -0.266; Y 0.128
V42: I -0.188; M 0.12; L -0.202; K 0.084; P -0.415; Y -0.453; Q 0.308; E 0.063; W -0.457; R 0.095; N -0.203; C -0.242; F -0.148; S 0.02
L46: G -0.787; M -0.224; C -0.309; W -0.493; P -0.454; S -0.779; V -0.303; R -0.467; I -0.245; Q -0.264; F -0.46; A -0.461; T -0.229; H -0.626; N -0.625; K -0.631; Y -0.059; E -0.525; D -1.08
T43: F -0.34; Y -0.332; M -0.317; E -0.053; Q -0.018; L -0.092; A -0.1; G -0.401; N -0.263; R -0.262; W -0.584; S -0.021; K -0.172; C -0.02
E45: A -0.213; Y -0.484; R -0.165; W -0.598; F -0.398; D -0.149; Q 0.05; P -0.552; M -0.325; T -0.076; L -0.21; K -0.069; H -0.338; V -0.294; N -0.282; I -0.089; G -0.321
N40: S -0.057; F -0.37; M -0.298; I -0.607; Q -0.056; G -0.037; E -0.04; H -0.032; P -0.931; Y -0.564; W -0.34; A -0.08; T -0.096; V -0.556; C -0.505; R -0.157
T52: Q -0.202; W -0.295; M -0.218; D 0.301; V -0.011; L -0.064; Y -0.248; R 0.034; S 0.008; K 0.335; A 0.085; N -0.028; G 0.038; P -0.486; I 0.029
Y49: I 0.081; M -0.113; C -0.069; E 0.09; S 0.126; A 0.022; F 0.004; K -0.181; N -0.162; T -0.007; H 0.118; V -0.097; L -0.126; D -0.006; P -0.165; W -0.266; R -0.527
T37: L -0.133; R -0.111; Y -0.243; V -0.058; N -0.166; S 0.019; Q 0.01
P47: G -1.04; T -1.01; S -0.95; E -0.985; Q -1.23; W -1.12; R -0.895; C -1.22; M -0.721; D -1.17; F -1.1; H -1; V -0.583; I -1.02; A -0.842; K -0.274; Y -1.11
E41: A -0.109; G -0.471; R -0.158; V -0.323; Q 0.014; S -0.349; D -0.268; M -0.34; L -0.111; I -0.324; H -0.472; Y -0.231; P -0.776; F -0.556; K -0.081; C -0.409; T -0.283; W -0.378; N -0.364
